Data taken from patent publication US20240124553A1.

What was measured:
[1] = molecular target: Sindbis virus strain TR339 (virions; also structural proteins on infected Vero cells) (Sindbis virus)
[2] = molecular target: Sindbis virus strain TR339 (virions; also structural proteins on infected Vero cells) (Sindbis virus); assay: cell-based or functional assay
[3] = molecular target: Mayaro virus (MAYV) structural proteins on infected cells (Mayaro virus); assay: flow cytometry, surface staining of MAYV-infected Vero cells with serial dilutions, % binding to infected cells

“Du-D1-Mo-D2 MXRA8-Fc (chimeric duck D1 - mouse D2 MXRA8, duck stalk) (from UniProt Q9DBV4 23-65; Q9DBV4 195-293) (Fc fusion)” showed a neutralisation of SINV-GFP infection; IC50 (read off the curve) [1] of 0.3 µg/mL, a neutralization of SINV TR339 infection, EC50 against that of duck MXRA8-Fc [2] of 3 fold and an EC50 (read off the curve) [3] of 0.04 µg/mL.
